The target of the assay is A3B 193 CTD (human) (UniProt Q9UH17). The experiment in a line: SEC. In general terms: SEC sorts molecules by how far they enter the pores of the column.

In turn, “A3B 193 CTD (from UniProt Q9UH17 193-382) (domain or fragment)” displayed a stoichiometry N of 2.

The stoichiometry N is a count of units in the complex or per binding partner.

The values above are taken from article PMC5714209.
